T1: mIL-12Rβ2_(D1-D6)-Strep-II Tag (non pre-dimerized) (mouse, UniProt P97378 24-637)
T1 sequence (looked up): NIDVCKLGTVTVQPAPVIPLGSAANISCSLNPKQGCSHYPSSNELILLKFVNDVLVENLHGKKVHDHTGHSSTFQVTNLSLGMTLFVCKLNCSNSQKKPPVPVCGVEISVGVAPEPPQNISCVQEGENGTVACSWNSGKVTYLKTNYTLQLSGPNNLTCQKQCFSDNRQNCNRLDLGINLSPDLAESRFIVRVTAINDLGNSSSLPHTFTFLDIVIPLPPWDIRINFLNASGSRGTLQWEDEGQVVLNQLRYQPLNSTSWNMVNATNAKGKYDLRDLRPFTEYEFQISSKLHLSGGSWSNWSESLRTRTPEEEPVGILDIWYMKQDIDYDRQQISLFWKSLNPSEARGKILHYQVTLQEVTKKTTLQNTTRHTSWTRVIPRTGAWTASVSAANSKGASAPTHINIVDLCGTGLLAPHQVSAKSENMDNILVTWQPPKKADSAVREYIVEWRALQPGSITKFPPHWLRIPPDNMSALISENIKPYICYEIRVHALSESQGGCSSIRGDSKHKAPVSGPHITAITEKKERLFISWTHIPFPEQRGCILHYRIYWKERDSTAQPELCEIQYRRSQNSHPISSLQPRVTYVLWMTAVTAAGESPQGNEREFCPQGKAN

T2: mIL-12B (p40), untagged, of the crystallised mIL-12 (mouse, UniProt P43432 23-335)
T2 sequence (looked up): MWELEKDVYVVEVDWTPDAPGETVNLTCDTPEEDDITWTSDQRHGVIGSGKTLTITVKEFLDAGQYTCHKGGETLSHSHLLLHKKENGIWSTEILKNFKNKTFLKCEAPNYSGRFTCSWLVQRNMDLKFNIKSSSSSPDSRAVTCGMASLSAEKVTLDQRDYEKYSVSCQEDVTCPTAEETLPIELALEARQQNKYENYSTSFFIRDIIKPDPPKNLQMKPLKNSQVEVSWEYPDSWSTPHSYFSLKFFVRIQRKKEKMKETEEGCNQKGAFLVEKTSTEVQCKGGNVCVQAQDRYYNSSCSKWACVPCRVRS

T3: hIL-12B (p40), subunit of hIL-23 in the cryo-EM complex (human, UniProt P29460 23-328)
T3 sequence (looked up): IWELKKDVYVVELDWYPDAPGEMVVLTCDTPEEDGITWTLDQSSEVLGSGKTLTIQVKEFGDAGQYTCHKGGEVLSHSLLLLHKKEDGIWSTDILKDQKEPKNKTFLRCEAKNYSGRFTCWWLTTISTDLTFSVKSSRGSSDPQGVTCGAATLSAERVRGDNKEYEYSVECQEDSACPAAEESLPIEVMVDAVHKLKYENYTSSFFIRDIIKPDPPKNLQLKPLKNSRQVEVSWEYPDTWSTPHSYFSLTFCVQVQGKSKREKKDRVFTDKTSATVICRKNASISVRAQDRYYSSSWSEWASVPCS

T4: hIL-12B (p40) of the crystallised hIL-23 (hIL-23a:hIL-12b co-transfection) (human, UniProt P29460 23-328)
T4 sequence (looked up): T3 sequence (looked up)

B1: mIL-12A (p35), untagged subunit of mIL-12 in the cryo-EM complexes (natural protein, mouse, UniProt P43431 23-215, looked up)
chain: RVIPVSGPARCLSQSRNLLKTTDDMVKTAREKLKHYSCTAEDIDHEDITRDQTSTLKTCLPLELHKNESCLATRETSSTTRGSCLPPQKTSLMMTLCLGSIYEDLKMYQTEFQAINAALQNHNHQQIILDKGMLVAIDELMQSLNHNGETLRQKPPVGEADPYRVKMKLCILLHAFSTRVVTINRVMGYLSSA
B2: mIL-12A (p35) of the crystallised mIL-12 (mIL-12a-AviTag-His6, digested with Caspase-3) (natural protein, mouse, UniProt P43431 23-215, looked up)
chain: B1 chain
B3: mIL-12B (p40), subunit of mIL-12 in the cryo-EM complexes (mIL-12b-Casp3-AviTag-His6, tags cleaved) (natural protein, mouse, UniProt P43432 23-335, looked up)
chain: T2 sequence (looked up)
B4: murine IL-12 (mIL-12), heterodimer of mIL-12A (p35) and mIL-12B (p40), as in the cryo-EM receptor complexes (complex, mouse)
chain 1: B1 chain
chain 2: T2 sequence (looked up)
B5: hIL-23A (p19), subunit of hIL-23 in the cryo-EM complex (natural protein, human, UniProt Q9NPF7 20-189, looked up)
chain: RAVPGGSSPAWTQCQQLSQKLCTLAWSAHPLVGHMDLREEGDEETTNDVPHIQCGDGCDPQGLRDNSQFCLQRIHQGLIFYEKLLGSDIFTGEPSLLPDSPVGQLHASLLGLSQLLQPEGHHWETQQIPSLSPSQPWQRLLLRFKILRSLQAFVAVAARVFAHGAATLSP
B6: hIL-23A (p19) of the crystallised hIL-23 (hIL-23a:hIL-12b co-transfection) (natural protein, human, UniProt Q9NPF7 20-189, looked up)
chain: B5 chain
B7: mIL-12Rβ1_(D1-D5)-Strep-II Tag (non pre-dimerized) (receptor, mouse, UniProt Q60837 20-565, looked up)
chain: QLGASGPGDGCCVEKTSFPEGASGSPLGPRNLSCYRVSKTDYECSWQYDGPEDNVSHVLWCCFVPPNHTHTGQERCRYFSSGPDRTVQFWEQDGIPVLSKVNFWVESRLGNRTMKSQKISQYLYNWTKTTPPLGHIKVSQSHRQLRMDWNVSEEAGAEVQFRRRMPTTNWTLGDCGPQVNSGSGVLGDIRGSMSESCLCPSENMAQEIQIRRRRRLSSGAPGGPWSDWSMPVCVPPEVLPQAKIKFLVEPLNQGGRRRLTMQGQSPQLAVPEGCRGRPGAQVKKHLVLVRMLSCRCQAQTSKTVPLGKKLNLSGATYDLNVLAKTRFGRSTIQKWHLPAQELTETRALNVSVGGNMTSMQWAAQAPGTTYCLEWQPWFQHRNHTHCTLIVPEEEDPAKMVTHSWSSKPTLEQEECYRITVFASKNPKNPMLWATVLSSYYFGGNASRAGTPRHVSVRNQTGDSVSVEWTASQLSTCPGVLTQYVVRCEAEDGAWESEWLVPPTKTQVTLDGLRSRVMYKVQVRADTARLPGAWSHPQRFSFEVQIS

Assay [1] deals with T1, mIL-12Rβ2_(D1-D6)-Strep-II Tag (non …). Put plainly: cryo-EM structure.
Assay [2] concerns the target B3. Kind of assay: cryo-EM structure.
Assay [3] deals with T2, mIL-12B (p40), untagged, of the …. Put plainly: crystal structure.
Assay [4] addresses B7. Kind of assay: cryo-EM structure.
Assay [5] addresses hIL-23R-CaM (complete extracellular segment of human IL-23 receptor fused to calmodulin) (human, UniProt Q5VWK5 24-355; P0DP23 5-149). Kind of assay: cryo-EM structure.
Assay [6] addresses T3, hIL-12B (p40), subunit of hIL-23 in the …. Put plainly: cryo-EM structure.
Assay [7] concerns the target T4, hIL-12B (p40) of the crystallised …. Kind of assay: crystal structure.

For the molecule B1, the binding result in assay [1] and in assay [2] was “binds” each time.

As to B2, in assay [3], the binding result is on record as “binds”.

In the case of B3, the binding result in assay [4] is on record as “binds”.

With B4, the binding result in assay [1] and in assay [4] was “binds” each time.

B5: the binding result in assay [5] and in assay [6] was “binds” each time.

As to B6, the binding result in assay [7] is listed as “binds”.

As for B7, in assay [1], the binding result is “binds”.

The values are drawn from doi:10.1101/2023.03.13.532366 (bioRxiv, 2023).
